The target of experiment [1] is transmembrane (TM) domain of the human nicotinic acetylcholine receptor α4 subunit (human). Kind of experiment: SEC-MALS. On the technique in general: Size exclusion chromatography separates by hydrodynamic size, large species first.
In experiment [2] the target is transmembrane (TM) domain of the human nicotinic acetylcholine receptor β2 subunit (human). The experiment can be described thus: SEC-MALS.

Consider “transmembrane (TM) domain of the human nicotinic acetylcholine receptor α4 subunit (domain or fragment)”, for which the stoichiometry N (usually a count of units in the complex or per binding partner) in experiment [1] was determined as 5. Turning to “transmembrane (TM) domain of the human nicotinic acetylcholine receptor β2 subunit (domain or fragment)”, the stoichiometry N in experiment [2] was 5.
